This assay addresses T1, IFNγ cellular receptor (IFNGR1 and IFNGR2) on WISH cells (human (endogenous in WISH cells)) (UniProt P15260).
T1 sequence 1: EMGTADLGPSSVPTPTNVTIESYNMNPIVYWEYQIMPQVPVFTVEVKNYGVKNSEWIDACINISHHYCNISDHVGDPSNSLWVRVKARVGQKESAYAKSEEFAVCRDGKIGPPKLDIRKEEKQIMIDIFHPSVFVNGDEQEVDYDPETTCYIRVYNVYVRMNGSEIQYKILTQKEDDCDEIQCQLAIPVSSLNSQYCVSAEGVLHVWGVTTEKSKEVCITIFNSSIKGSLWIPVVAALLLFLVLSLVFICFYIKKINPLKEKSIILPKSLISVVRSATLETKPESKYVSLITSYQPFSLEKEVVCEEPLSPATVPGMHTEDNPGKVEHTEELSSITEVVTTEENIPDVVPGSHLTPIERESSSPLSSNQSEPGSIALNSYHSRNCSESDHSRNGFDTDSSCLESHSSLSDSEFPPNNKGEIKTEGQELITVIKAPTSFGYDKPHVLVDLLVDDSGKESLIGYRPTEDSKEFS
T1 sequence 2: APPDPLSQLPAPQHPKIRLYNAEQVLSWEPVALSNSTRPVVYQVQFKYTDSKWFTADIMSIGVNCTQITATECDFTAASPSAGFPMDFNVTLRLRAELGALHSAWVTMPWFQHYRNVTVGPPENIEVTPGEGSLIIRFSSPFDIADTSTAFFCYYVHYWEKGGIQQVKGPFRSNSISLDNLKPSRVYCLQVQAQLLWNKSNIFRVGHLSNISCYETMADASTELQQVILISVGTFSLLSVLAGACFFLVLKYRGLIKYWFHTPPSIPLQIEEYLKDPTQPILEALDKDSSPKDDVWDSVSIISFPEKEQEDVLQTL

The substance “recombinant interferon-gamma (IFNγ) (from UniProt P01579 24-161) (ligand)” showed an antiproliferative activity of IFNγ (IDO induction, modified kynurenine bioassay) on WISH cells, 100 IU/mL IFNγ with LMWH (Fraxiparine): LMWH concentration that reduces the activity to 50% of control of 35 IU/mL and an inhibition of IDO induction by 100 IU/mL IFNγ on WISH cells with LMWH (Fraxiparine) 1.5 to 150 anti-Xa IU/mL; highest value at 150 IU/mL of less than 80%.

Source of the values: article PMC8509397.
